# According to patent US20260184782A1 (TWIST BIOSCIENCE, published 2026):
# T1: TIGIT (UniProt Q495A1 22-141, limits assumed)
# T1 construct: construct not described; also called T cell immunoreceptor with Ig and ITIM domains
# T1 sequence (looked up): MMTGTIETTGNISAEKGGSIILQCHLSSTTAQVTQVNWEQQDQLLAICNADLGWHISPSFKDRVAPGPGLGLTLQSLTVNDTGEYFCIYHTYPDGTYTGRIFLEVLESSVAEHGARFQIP
# T2: TIGIT (UniProt Q495A1 22-141, limits assumed)
# T2 construct: also called T cell immunoreceptor with Ig and ITIM domains; hTIGIT
# T2 sequence (looked up): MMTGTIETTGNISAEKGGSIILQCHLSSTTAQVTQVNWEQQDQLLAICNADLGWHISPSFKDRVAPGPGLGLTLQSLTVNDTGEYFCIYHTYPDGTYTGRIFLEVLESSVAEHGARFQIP
# T3: human TIGIT-Fc (human, UniProt Q495A1 22-141, limits assumed)
# T3 construct: not shown: Fc; not described
# T3 sequence (looked up): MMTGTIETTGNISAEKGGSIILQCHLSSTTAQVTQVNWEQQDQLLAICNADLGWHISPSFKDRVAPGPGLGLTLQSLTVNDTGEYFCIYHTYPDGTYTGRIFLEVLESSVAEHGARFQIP
# T4: recombinant human TIGIT (human, UniProt Q495A1 22-141, limits assumed)
# T4 construct: also called T cell immunoreceptor with Ig and ITIM domains
# T4 sequence (looked up): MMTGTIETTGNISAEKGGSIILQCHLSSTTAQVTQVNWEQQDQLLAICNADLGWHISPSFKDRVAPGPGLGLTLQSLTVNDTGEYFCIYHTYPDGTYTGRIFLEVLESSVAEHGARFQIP
# Columns and labels:
# TIGIT [1] = biological target: T1, TIGIT; experiment: SPR, VHH-V5-His
# TIGIT [2] = biological target: T1, TIGIT; experiment: SPR, VHH-V5-His; unit inferred
# TIGIT [3] = biological target: T2, TIGIT; experiment: ELISA; set-up: unit not given here
# TIGIT [4] = biological target: T2, TIGIT; experiment: SPR (Carterra)
# human TIGIT-Fc = biological target: T3, human TIGIT-Fc; experiment: CD155 competition ELISA, single point; further: test concentration or dose not given here
# Method: TIGIT/CD155 inhibition of VHH-Fcs were assessed using an ELISA assay (Table 10B). Briefly, human TIGIT-Fc was coated on a plate & then incubated with VHH-Fcs and human CD155-biotin. Bound CD155-biotin was detected using a streptavidin-HRP conjugate visualized with TMB. Strong inhibitors from the single point screen were titrated to determine EC50 (Table 10C).
# recombinant human TIGIT = biological target: T4, recombinant human TIGIT; experiment: SPR (Carterra), average
# Method: Binding affinities of VHH-Fc proteins to recombinant human TIGIT were measured by SPR using a Carterra instrument (Table 10A). […] Average values reported from measurements from 1-2 samples.
binder,measurement,setting,value
"TIGIT-30-49 VHH-V5-His (VHH, not shown: V5 and His tags) VHH: EVQLVESGGGLVQAGGSLRLSCAASGNIFSRYIMGWFRQAPGKEREWVAGISNGGTTKYADSVKGRFTISADNAKNTVYLQMNSLKPEDTAVYYCAQGWKIVPTNWGQGTQVTVSS",RU,TIGIT [1],99 RU
same,Kd,TIGIT [2],945 nM
"TIGIT-211-28 (antibody, V domains shown) VH: EVQLLESGGGLVQPGGSLRLSCAASGFTFSTYAMSWVRQAPGKGLEWVSEISPSGGYTYYADSVKGRFTISRDNSKNTLYLQMNSLRAEDTAVYYCAKVKLGGGPNFDYWGQGTLVTVSS VL: DIQMTQSPSSLSASVGDRVTITCQGASLRNYYASWYQQKPGKAPKLLIYDTSKVASGVPSRFSGSGSGTDFTLTISSLQPEDFATYYCFQGSHIPYTFGQGTKVEIK",ELISA,TIGIT [3],7.2
same,Kd,TIGIT [4],63.1 nM
same,koff,TIGIT [4],0.0016 s⁻¹
same,kon,TIGIT [4],25400 M⁻¹ s⁻¹
"TIGIT-211-17 (antibody, V domains shown) VH: EVQLLESGGGLVQPGGSLRLSCAASGFTFAEYSMNWVRQAPGKGLEWVSWISPHGALTYYADSVKGRFTISRDNSKNTLYLQMNSLRAEDTAVYYCARSYGGGFDYWGQGTLVTVSS VL: DIQMTQSPSSLSASVGDRVTITCRASQTIERRLNWYQQKPGKAPKLLIYQNDKRPSGVPSRFSGSGSGTDFTLTISSLQPEDFATYYCQQSYSIPPTFGQGTKVEIK",ELISA,TIGIT [3],13.2
same,Kd,TIGIT [4],472 nM
same,koff,TIGIT [4],0.126 s⁻¹
same,kon,TIGIT [4],266000 M⁻¹ s⁻¹
"TIGIT-30-43 VHH-V5-His (VHH, not shown: V5 and His tags) VHH: EVQLVESGGGLVQAGGSLRLSCAASGFTFSTSWMGWFRQAPGKERELVAARNSGGNTNYADSVKGRFTISADNAKNTVYLQMNSLKPEDTAVYYCAADVWYGSTWRNWGQGTQVTVSS",RU,TIGIT [1],407 RU
same,Kd,TIGIT [2],107 nM
"TIGIT-30-40 VHH-V5-His (VHH, not shown: V5 and His tags) VHH: EVQLVESGGGLVQAGGSLRLSCAASGFTFSGNWMGWFRQAPGKEREWVVGISSGGSTHYADSVKGRFTISADNAKNTVYLQMNSLKPEDTAVYYCAADVWYGSTWRNWGQGTQVTVSS",RU,TIGIT [1],113 RU
same,Kd,TIGIT [2],222 nM
"TIGIT-30-01 VHH-V5-His (VHH, not shown: V5 and His tags) VHH: EVQLVESGGGLVQAGGSLRLSCAASGFAFSSYWMGWFRQAPGKERELVAARNSGGNTNYADSVKGRFTISADNAKNTVYLQMNSLKPEDTAVYYCAADVWYGSTWRNWGQGTQVTVSS",RU,TIGIT [1],664 RU
same,Kd,TIGIT [2],7460 nM
"TIGIT-SC135 (Fc fusion, VHH-Fc) VHH: EVQLVESGGGLVQPGGSLRLSCAASGFAFGDSWMGWFRQAPGKEREWVASVLRGGTLRAYAVSVKGRFTISADNSKNAAYLQMNSLKPEDTAVYYCARASIVGTTTLVWGQGTLVTVSS",OD (450 nm),human TIGIT-Fc,0.827 OD
same,Kd,recombinant human TIGIT,1670 nM
same,koff,recombinant human TIGIT,0.21 s⁻¹
same,kon,recombinant human TIGIT,126000 M⁻¹ s⁻¹
"TIGIT-211-30 (antibody, V domains shown) VH: EVQLLESGGGLVQPGGSLRLSCAASGFTFKSYGMHWVRQAPGKGLEWVSAISGSGGGTSYADSVKGRFTISRDNSKNTLYLQMNSLRAEDTAVYYCARAGQWLGDFDYWGQGTLVTVSS VL: DIQMTQSPSSLSASVGDRVTITCRASQPIGPDLLWYQQKPGKAPKLLIYRKSNRPSGVPSRFSGSGSGTDFTLTISSLQPEDFATYYCQQSYSTPYTFGQGTKVEIK",ELISA,TIGIT [3],8
same,Kd,TIGIT [4],2230 nM
same,koff,TIGIT [4],0.0681 s⁻¹
same,kon,TIGIT [4],30500 M⁻¹ s⁻¹
"TIGIT-29-30 VHH-V5-His (VHH, not shown: V5 and His tags) VHH: EVQLVESGGGLVQAGGSLRLSCAASGFTFSSYAMGWFRQAPGKEREFVAAITWSGTRTDYADSVKGRFTISADNAKNTVYLQMNSLKPEDTAVYYCAAAAWRYSEYDYWGQGTQVTVSS",RU,TIGIT [1],77 RU
same,Kd,TIGIT [2],232 nM
"TIGIT-29-18 VHH-V5-His (VHH, not shown: V5 and His tags) VHH: EVQLVESGGGLVQAGGSLRLSCAASGSTFSNYAMGWFRQAPGKEREFVSAINSSGSRTYYADSVKGRFTISADNAKNTVYLQMNSLKPEDTAVYYCAARLWGTWTAGDYDYWGQGTQVTVSS",RU,TIGIT [1],157 RU
same,Kd,TIGIT [2],352 nM
"TIGIT-29-34 VHH-V5-His (VHH, not shown: V5 and His tags) VHH: EVQLVESGGGLVQAGGSLRLSCAASGFTFRNYAMGWFRQAPGKEREFVSSISSSSSRTSYADSVKGRFTISADNAKNTVYLQMNSLKPEDTAVYYCAARLWGTWTAGDYDYWGQGTQVTVSS",RU,TIGIT [1],167 RU
same,Kd,TIGIT [2],967 nM
"TIGIT-29-22 VHH-V5-His (VHH, not shown: V5 and His tags) VHH: EVQLVESGGGLVQAGGSLRLSCAASGSILSSYTMGWFRQAPGKEREFVSTISRSSTRTYYADSVKGRFTISADNAKNTVYLQMNSLKPEDTAVYYCAARLWGTWTAGDYDYWGQGTQVTVSS",RU,TIGIT [1],123 RU
same,Kd,TIGIT [2],500 nM
"TIGIT-SC157 (Fc fusion, VHH-Fc) VHH: EVQLVESGGGLVQPGGSLRLSCAASGFTFSPSWMGWFRQAPGKEREWVASVLRGGYTWYADSVKGRFTISADNSKNTAYLQMNSLKPEDTAVYYCTTEGYDFWSGYYDYWGQGTLVTVSS",OD (450 nm),human TIGIT-Fc,0.414 OD
same,Kd,recombinant human TIGIT,302000 nM
same,koff,recombinant human TIGIT,0.0054 s⁻¹
"TIGIT-211-35 (antibody, V domains shown) VH: EVQLLESGGGLVQPGGSLRLSCAASGFTFNAYPMTWVRQAPGKGLEWVSAITGSGGSTYYADSVKGRFTISRDNSKNTLYLQMNSLRAEDTAVYYCARDGSYSSSWYGYWGQGTLVTVSS VL: DIQMTQSPSSLSASVGDRVTITCSGNKLGDKYASWYQQKPGKAPKLLIYRTSWLQSGVPSRFSGSGSGTDFTLTISSLQPEDFATYYCVARAVRGNPHVLFGQGTKVEIK",ELISA,TIGIT [3],8.8
same,Kd,TIGIT [4],605 nM
same,koff,TIGIT [4],0.0406 s⁻¹
same,kon,TIGIT [4],67100 M⁻¹ s⁻¹
"TIGIT-SC138 (Fc fusion, VHH-Fc) VHH: EVQLVESGGGLVQPGGSLRLSCAASGFTLENNMMGWFRQAPGKGREFVAAISRSGTLKAYADSVKGRFTISADNSKNTAYLQMNSLKPEDTAVYYCARVRYYYDSSGYFFWFDLWGQGTLVTVSS",OD (450 nm),human TIGIT-Fc,0.393 OD
same,Kd,recombinant human TIGIT,7300 nM
same,koff,recombinant human TIGIT,0.363 s⁻¹
same,kon,recombinant human TIGIT,49700 M⁻¹ s⁻¹
"TIGIT-30-15 VHH-V5-His (VHH, not shown: V5 and His tags) VHH: EVQLVESGGGLVQAGGSLRLSCAASGFTFSGNWMGWFRQAPGKEREWVSGISSGGGRTYYADSVKGRFTISADNAKNTVYLQMNSLKPEDTAVYYCAADVWYGSTWRNWGQGTQVTVSS",RU,TIGIT [1],66 RU
same,Kd,TIGIT [2],215 nM
"TIGIT-30-20 VHH-V5-His (VHH, not shown: V5 and His tags) VHH: EVQLVESGGGLVQAGGSLRLSCAASGPTFSIYDMGWFRQAPGKEREFVAVINWSRGSTFYADSVKGRFTISADNAKNTVYLQMNSLKPEDTAVYYCAAGVWSSLRHTAANWGQGTQVTVSS",RU,TIGIT [1],69 RU
same,Kd,TIGIT [2],195 nM
"TIGIT-29-10 VHH-V5-His (VHH, not shown: V5 and His tags) VHH: EVQLVESGGGLVQAGGSLRLSCAASGRTFSNYGMGWFRQAPGKEREFVSGISGSGGRTSYADSVKGRFTISADNAKNTVYLQMNSLKPEDTAVYYCAANLWYPVDRLNTGFNYWGQGTQVTVSS",RU,TIGIT [1],36 RU
same,Kd,TIGIT [2],323 nM
"TIGIT-SC196 (Fc fusion, VHH-Fc) VHH: EVQLVESGGGLVQPGGSLRLSCAASGFAFSSDWMGWFRQAPGKEREWVASVLRGGYTWYADSVKGRFTISADNSKNTAYLQMNSLKPEDTAVYYCATEGLGYWGQGTLVTVSS",OD (450 nm),human TIGIT-Fc,0.374 OD
same,Kd,recombinant human TIGIT,112000 nM
same,koff,recombinant human TIGIT,0.00692 s⁻¹
same,kon,recombinant human TIGIT,143 M⁻¹ s⁻¹
"TIGIT-SC210 (Fc fusion, VHH-Fc) VHH: EVQLVESGGGLVQPGGSLRLSCAASGFLFDSYWMVWFRQAPGKEREFVAAIWRSGTLKAYADSVKGRFTISADNSKNTAYLQMNSLKPEDTAVYYCARDHRAMVAPFDYWGQGTLVTVSS",OD (450 nm),human TIGIT-Fc,0.516 OD
same,Kd,recombinant human TIGIT,6330 nM
same,koff,recombinant human TIGIT,0.258 s⁻¹
same,kon,recombinant human TIGIT,40700 M⁻¹ s⁻¹
"TIGIT-211-18 (antibody, V domains shown) VH: EVQLLESGGGLVQPGGSLRLSCAASGFTFGTIPMSWVRQAPGKGLEWVGVIWGGGGTYYADSVKGRFTISRDNSKNTLYLQMNSLRAEDTAVYYCAKAHGNPVSDLSFDYWGQGTLVTVSS VL: DIQMTQSPSSLSASVGDRVTITCSGDKLGDKYTSWYQQKPGKAPKLLIYHTSRLQDGVPSRFSGSGSGTDFTLTISSLQPEDFATYYCQQSYNLPLTFGQGTKVEIK",ELISA,TIGIT [3],9.7
same,Kd,TIGIT [4],268 nM
same,koff,TIGIT [4],0.000832 s⁻¹
same,kon,TIGIT [4],3110 M⁻¹ s⁻¹
